test: soluble on expression in E. coli; label from the status in PepcDB or PDB records

Row | Sequence | soluble on expression in E. coli
1 | MGSDKIHHHHHHVKDGFDLVDTGDPFDTITPVIPISDRPRSQSVVAGTLNDPYRRQAVADARSLWRKSIPGSRGVVAAYLASQGIQLDEIPANLRFVLDHPYMKKSGGLYHELHRGPCVLGGIFSEAGQLLGVNQIWVDPKPPHGRASIQMDGDHMPAEIVRGSCKGGFLPLVWPEAATALVVARSLEAALRAYASRPSGLEDAAYWAVVDLKVMSGKMQRQKGVRYSGLPDLSDDTSFVAPHWVKRLVFLQEDDRTGTRQKLESGLKRSMHVRPGLRASIVRIGSAAKGGV | not soluble
2 | MGSDKIHHHHHHMERLDVFDCSNVLIASYFTDDRGCAHENREHTLIYLCSGELEIEERGKKTVLHPGDCAFMRRDNRMWLQKKVEDGKPYRSVVLKFSRPFLREFYQTLNRQQIPTDSEREKVSLRVLPSNRPDIRSLFESVIPYFDAGEKPSEDVLKLKMVEGIYVLLNTDRNLYASLFDFVEPWKIDILDYLNENYMCDLSLEEIASYTGRSLATFKRDFAKVSNLTPQKWIVKRRLEAAHGLIKSGKKKVTEACFDVGFKNLSHFSKIYKEAYGVAPSW | not soluble
3 | MSLNRFRKWLYKPKRSDPQLLARFYYADEELNQVAAELDSLDGRKDPQRCTLLVSQFRSCQDNVLNIINQIMDECIPQDRAPRDFCVKFPEEIRHDNLAGQLWFGAECLAAGSIIMNRELESMAMRPLAKELTRSLEDVRGALRDQALRDLNTYTEKMREALRHFDVLFAEFELSYVSAMVPVKSPREYYVQQEVIVLFCETVERALDFGYLTQDMIDDYEPALMFSIPRLAIVCGLVVYADGPLNLDRKVEDMSELFRPFHTLLRKIRDLLQTLTEEELHTLERNLCISQDVEFPIRADEGHHHHHH | not soluble
4 | FINQKKVEESELIENKTYGVLITKAGNYHKFESNQLLKSTTDFKSESDTIIFAQTIANTDQIFIVTSLGNIINIPVYKLAFNSKNKLASLVSKKPILLEYETIVFVGTMN | not soluble
5 | MSLIQEYVPGKQVTLAHIIASPNKEIYTKLGLPEGTSNALGILTITPSEAAIIAVDIATKSGDIQIGFIDRFSGSVVISGDVSSVEAALQAVIEGLQQILNFSVTCKITRTEGGSHHHHHH | soluble
6 | MSQATARHSVTSSPVSTGQLEEPISRLRVPTEDELPQKLRDIHMRIRKKFGFVPNFLTALSANPGTALRIMAFYEHLFDQSNSHLSASERELIAVVTSVATGCSYCVFNHRPALAAALGDRVLADRIARNHNDVTLAPRERALADLAQKLAATPHSVGSDDFARLRAIGFSEPAILEVLEVSAFFSYGNRLTIALNVLPDPQFFVSAMAGDPLEHHHHHH | not soluble
7 | MNANLPPSAISELHGPRLLLRAWRDSDREAFAEMCADPQVMEFFPSVLDRAQSDALVDRVQAHFAERGYGPWALELPGEAAFIGFTGLFDVTMDVHFAPTVEIGWRLAPAYWGRGLAREAAETALDFAFERLRLPEVVAFTTPPNRRSWGLMERLGMRRDPAEDFDHPLLAADHPMRRHILYRVDAARWAER | not soluble
8 | MGSDKIHHHHHHMTPEQFEVKANPALWERLGMNVERFSGMPKMLTEAFRGIYLSQKNRPARMEYFDGMIAELHSGRVEELVTAKDAGRPVVGTFCVYVPEEVIMAVGGICVGLCGGSQGSIPDAEKVLPRNICPMVKSAFGFKLGKICPYFQAVDLVYGETTCDAKKKTWELLDREVPTHVMEIPQMKRARDKALWLEEVKDFTSKMEEVSGRKATAEGIGAAIRVMNAKRLALQRLNDLRHHTPSPISGKDMLLIQQIAFYDDPARFTANVNELCDELDERIAAGVAVAPAATPRVMVSGTPMALPNWKLHHLIESAGAVVVNEESCIGTRYYKDLTDESTATVDEQLSLLTDRYMKIDCSCFTPNDDRIEQVLVEYRASGAQGLIDYCLQFCHTYNIEAVKLREMCEREGIPFLAIETDYSPEDVGQLQTRIEAFIEQIRG | not soluble
9 | MTKSVDTLLIPGPIILSGAVQKALDVPSLGHTSPEFVSIFQRVLKNTRAVFKSAAASKSQPFVLAGSGTLGWDIFASNFILSKAPNKNVLVVSTGTFSDRFADCLRSYGAQVDVVRPLKIGESVPLELITEKLSQNSYGAVTVTHVDTSTAVLSDLKAISQAIKQTSPETFFVVDAVCSIGCEEFEFDEWGVDFALTASQKAIGAPAGLSISLCSSRFMDYALNDSKNGHVHGYFSSLRRWTPIMENYEAGKGAYFATPPVQLINSLDVALKEILEEGLHKRWDLHREMSDWFKDSLVNGLQLTSVSRYPSNMSAHGLTAVYVADPPDVIAFLKSHGVVIAGGIHKDIGPKYIRIGHMGVTACNKNLPYMKNCFDLIKLALQRKK | soluble
10 | MSYNEKSEAIIKEEWLQRLEQFPFKQADMNRLIMNYLVTEGFKEAAEKFQHEADLEPSVELSSLDGRILIREAVQAGRIEEATQLVNQLHPELLGSDRYLFFHLQQLQLIELIRAGKVEEALSFAQSKLSESGEEAMFELERTLALLAFEKPQESPFADLLEQSYRQKIASELNSAILRCEQSEDSTPKMMFLLKLILWAQSKLDSRSISYPKMKNLETAHLEPKLEHHHHHH | not soluble
11 | MNFVQPIRDPEQIQQLKDYFKEKSLRNYILFIMGINTGLRISDILKLKVGDVKGSHISMREEKTGKQKRIQITAALKRELKWFIEEREDNEYLLQSRQGRNRPIGRSMAYKILSGAAADFGLDEIGTHTLRKTYGYHMYMQTKNIALLMEIFNHSSEKVTLRYIGVNQDAMDKAMTRFKI | not soluble
12 | MWKIELSDWTDDEFKHIVDFFTNQNILQPLETRRVRYLEMLLFNRSFMIFFPNIIDNHPELFMPCKARPNPPDVPIAVRVFTFEDRKMVMRSELFKAINMKYPNRKPIEYNDVNGFLYAMELKDVFKNFGDLWHDIDFLNTPINRTNQKAVPIITSTGDFCIPGFRAFSEIFYLMSLIMRVFQKVKINSMHVLDDYIKILVSQLEPFLKSQCFITTDAFQKIEQEMCNYWKKFENIPVKDIRDVKRFTLNDLKKELKYLGITEAFPDVLVYADLAFPKLLESVSQNKLETIDMFEAVAECTYCCLLDKYLELVQVWFPQFGSHKMFCSILPPDPVDIFLGVSSSHKDLRRYIKGEDKENMKVKDTSNPQVMKNQRENPKSISKPEGNNSDTPTESGNSSSSKVESSMANCTDCSGVRKEMKTVQNVLKDVQTQLTTMKHKSEKFEKNMTGSVERSKKAEQRLQEEKLDHVKIQVEAKKKLELKLEEVETWKKQVSALWNCKSDHEALNTKLSKCVEKGKKLKEINEKVSNSRDQLSTKVFELKLQLNRELETAETLKNERKDSAKLRNEVNQLKDQLEREREIAYGLQEEASKLRVGTGKDVKRQILESENAQLRQEKQRREMEKSSLLETKMILSRQNEEQHKLIQSLMDQNHTEEGPSNHEDENGSYRKVLWKHQKIKDLYRKGEQQREAEEMVNKLISLNQHPEVQHISFLELESFKKQISDYLHTVEKNIQKIKRNDDFTNLEPLPEPPKMSDKFMRLYWNEMNKQPSTSDLPSAELDDTDQL | not soluble
13 | MGSDKIHHHHHHMPANPLPDDDLADSDTDDTGSGEHGEGGEKVRSGIQSIEVGFRLLEVLTSEPRAMMLRDLAQRAGMSPAKAHRYLVSFSRLGVVSQDPVSGRYELGGFALQMGLARLARVDGVKLARIALTELRDRVDQTVGIAVWGNQGPTIVHWMESSHPAKASLKLGDVMPLLGSATGLLFAAYLPRSKTAAMLERELADTRRSPHHGGPRTLEEVDAVLADVRAHQAARVEGMLLPTIHAFCMPVFDAVGELALAIVALGQEGTFDIAWGGEMDTALRACAQKLSYELGYSPDARDA | not soluble
14 | MAVAGAVSGEPLVHWCTQQLRKTFGLDVSEEIIQYVLSIESAEEIREYVTDLLQGNEGKKGQFIEELITKWQKNDQELISDPLQQCFKKDEILDGQKSGDHLKRGRKKGRNRQEVPAFTEPDTTAEVKTPFDLAKAQENSNSVKKKTKFVNLYTREGQDRLAVLLPGRHPCDCLGQKHKLINNCLICGRIVCEQEGSGPCLFCGTLVCTHEEQDILQRDSNKSQKLLKKLMSGVENSGKVDISTKDLLPHQELRIKSGLEKAIKHKDKLLEFDRTSIRRTQVIDDESDYFASDSNQWLSKLERETLQKREEELRELRHASRLSKKVTIDFAGRKILEEENSLAEYHSRLDETIQAIANGTLNQPLTKLDRSSEEPLGVLVNPNMYQSPPQWVDHTGAASQKKAFRSSGFGLEFNSFQHQLRIQDQEFQEGFDGGWCLSVHQPWASLLVRGIKRVEGRSWYTPHRGRLWIAATAKKPSPQEVSELQATYRLLRGKDVEFPNDYPSGCLLGCVDLIDCLSQKQFKEQFPDISQESDSPFVFICKNPQEMVVKFPIKGNPKIWKLDSKIHQGAKKGLMKQNKAV | soluble
